Measured values published in patent US7939057B2, “Methods and compositions for modulating the mobilization of stem cells” (Mount Sinai School of Medicine, priority 2006, dated 2011).

Key:
Runx2 = assay: Q-PCR of Runx2 in BMNCs after G-CSF; type: in vivo; settings: bone marrow of Cgt+/+ mice after G-CSF; n=4, p<0.001
Experimental: (§1) Methods, primers and PCR conditions are available in Table S3. Briefly, total RNA was extracted from BMNC using TRIzol solution (Invitrogen, Carlsbad, Calif.). The bone carcass was then immersed in liquid nitrogen, and pulverized into powder followed by RNA extraction with TRIzol. Total RNA (1 μg) was treated with DNaseI (Invitrogen, Carlsbad, Calif.), and reverse transcribed using first strand cDNA synthesis with random primers (Promega, Madison, Wis.). Q-PCR was performed using SYBR Green (Molecular Probes) on an ABI PRISM 7900HT Sequence Detection System (Applied Biosystems, Foster city, CA). All experiments were done in triplicate and normalized to GAPDH.

CXCL12 = assay: CXCL12α and CXCL12β mRNA by Q-PCR in BM and bone after G-CSF; type: in vivo, mice
Experimental: as §1

bone lining osteoblasts = assay: Morphology of bone lining osteoblasts (CD44 immunofluorescence); type: in vivo; settings: G-CSF-treated wild-type C57BL/6 mice
Experimental: For the morphology of bone lining osteoblasts, femoral bones were fixed overnight in formalin, decalcified in 10% EDTA (pH 7.4) for 48 h, snap-frozen in isopentane chilled in liquid nitrogen, and sectioned at 10 μm thickness. Sections were fixed with 4% parafolmaldehyde for 20 min, stained with anti-CD44 (KM201) followed by donkey Alexa-488-anti-rat IgG (Molecular Probes, Eugene, Oreg.), and mounted in Vectashield Mounting Medium with DAPI (Vector Laboratories). TUNEL assay was done using an In Situ Cell Death Detection Kit (Roche Applied Science, Penzberg, Germany) according to manufacturer's recommendation. Images were captured and analyzed with Olympus BX61WI (Hauppauge, N.Y.) with 60× objective mounted on a motorized X, Y stage and a Z focusing drive (Applied Scientific Instrumentation, Eugene, Oreg.). Images are collected with Coolsnap HQ digital camera (Ropert Scientific, Munich, Germany). A Dell workstation with SlideBook software (Intelligent Imaging Innovations, Denver, Colo.) provided for synchronization of components, data acquisition and image deconvolution.

B1: G-CSF: recombinant human G-CSF (Filgrastim, Amgen), hematopoietic cytokine used to elicit HSPC mobilization (protein, UniProt P09919 31-207, looked up)
Granulocyte …: TPLGPASSLPQSFLLKCLEQVRKIQGDGAALQEKLVSECATYKLCHPEELVLLGHSLGIPWAPLSSCPSQALQLAGCLSQLHSGLFLYQGLLQALEGISPELGPTLDTLQLDVADFATTIWQQMEELGMAPALQPTQGAMPAFASAFQRRAGGVLVASHLQSFLEVSYRVLRHLAQP
modifications: filgrastim
notes: recombinant human G-CSF (Filgrastim, Amgen), hematopoietic cytokine used to elicit HSPC mobilization
- levels of Runx2, reduction (Runx2): 65%
- CXCL12 mRNA levels in bone (CXCL12; after G-CSF treatment, p<0.05 for CXCL12α, p=0.06 for CXCL12β): moderately decreased
- mRNA expression of both CXCL12 isoforms in BM (CXCL12; after G-CSF, Cgt−/− and normal littermates): profoundly decreased
- appearance of bone-lining osteoblasts (bone lining osteoblasts): flattened appearance with shorter projections
